Reference: patent US20130136691A1, “GASTRIN […] PEPTIDE COMPOUNDS” (priority 2008, published 2013)
pEC50, pIC50, pKd: −log10 of the molar value.

Assays:
[1] = biological target: gastrin releasing peptide receptor (GRP-R) (human) (UniProt P30550); assay: competition with 177Lu-AMBA, PC-3 cells
[2] = biological target: gastrin releasing peptide receptor (GRP-R) (human) (UniProt P30550); assay: competition with 67Ga-AMBA, PC-3 cells
[3] = biological target: gastrin releasing peptide receptor (GRP-R) (human) (UniProt P30550); assay: competition with 125I-universal ligand, receptor autoradiography on human tumour tissue
[4] = biological target: human neuromedin-B preferring receptor (NMB-R) (human) (UniProt P28336); assay: as above
[5] = biological target: gastrin releasing peptide receptor (GRP-R) (human) (UniProt P30550); assay: saturation binding, PC-3 cells, calculated from Bmax
[6] = biological target: gastrin releasing peptide receptor (GRP-R) (human) (UniProt P30550); assay: saturation binding of carrier-added radioligand, PC-3 cells, 4 C

Sequence of gastrin releasing peptide receptor (GRP-R) (human) (P30550 whole entry): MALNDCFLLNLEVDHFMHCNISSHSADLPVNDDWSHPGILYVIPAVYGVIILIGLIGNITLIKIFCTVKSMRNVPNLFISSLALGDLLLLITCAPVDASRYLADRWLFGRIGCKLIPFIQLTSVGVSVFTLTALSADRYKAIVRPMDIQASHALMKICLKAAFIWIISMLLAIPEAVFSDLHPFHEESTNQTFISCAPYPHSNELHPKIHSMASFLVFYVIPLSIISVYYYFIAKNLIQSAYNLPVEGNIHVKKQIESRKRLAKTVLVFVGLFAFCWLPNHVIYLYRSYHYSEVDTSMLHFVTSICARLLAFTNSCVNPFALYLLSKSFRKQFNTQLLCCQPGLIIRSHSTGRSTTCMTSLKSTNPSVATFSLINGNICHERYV
Sequence of human neuromedin-B preferring receptor (NMB-R) (human) (P28336 whole entry): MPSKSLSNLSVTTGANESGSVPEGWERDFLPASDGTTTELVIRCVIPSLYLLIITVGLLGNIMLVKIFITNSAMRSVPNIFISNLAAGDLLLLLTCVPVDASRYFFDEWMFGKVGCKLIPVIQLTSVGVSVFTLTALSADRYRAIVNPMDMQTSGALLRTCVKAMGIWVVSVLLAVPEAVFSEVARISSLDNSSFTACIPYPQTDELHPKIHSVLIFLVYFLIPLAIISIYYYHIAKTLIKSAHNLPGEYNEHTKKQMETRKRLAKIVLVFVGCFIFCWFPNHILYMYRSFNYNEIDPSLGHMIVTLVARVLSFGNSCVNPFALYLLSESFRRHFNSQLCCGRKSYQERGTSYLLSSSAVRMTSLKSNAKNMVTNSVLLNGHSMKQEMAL

Substance: Ga-AMBA (non-radioactive gallium complex of AMBA) (peptide)
- pEC50 [1]: 8.94
- pEC50 [2]: 9.00

Substance: Universal ligand ([DTyr^6, βAla^11, Phe^13, Nle^14]-BBN(6-14)) (peptide)
- pIC50 [3]: 9.15
- pIC50 [4]: 9.10

Substance: ^67Ga-AMBA (peptide)
- Receptors/cell (receptors/cell) [5]: 242000
- Binding capacity (Bmax) (fmoles/1 × 10^6 cells) [6]: 402
- pKd [6]: 9.34
